± gives the standard deviation.
Assay: protein stability index of a GFP-peptide fusion (GPS, HEK-293T) (PSI 1-6); higher = more stable
[1] = treatment: DMSO, c terminus: a fixed tail appended
[2] = treatment: MLN4924 1 uM, 8 h, c terminus: a fixed tail appended
[3] = treatment: DMSO, c terminus: native
[4] = treatment: MLN4924 1 uM, 8 h, c terminus: native
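Note: 24-mer peptide tiles fused after GFP, lentivirally expressed, FACS-sorted into six equal bins by GFP/DsRed ratio, decoded by Illumina sequencing, PSI is the read-weighted mean bin number.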

Row | Sequence | protein stability index [1] | protein stability index [2] | protein stability index [3] | protein stability index [4]
1 | FSSITDSTMSLNIITVTLNMEKYN [DVL3] | 2.93 ± 0.63 | 2.75 ± 0.57 |  | 
2 | QEELQIQAAVAAGDVHTVRKMLEQ [ASB7] | 5 ± 0.39 | 4.73 ± 0.21 |  | 
3 | YHMFQREKVEVQLPELFHKIGVGA [KCNAB2] | 2.52 ± 0.59 | 2.39 ± 0.45 |  | 
4 | QQGLGASYRTESAQRQACMYASSA [TBX5] | 3.8 ± 0.17 | 3.82 ± 0.2 |  | 
5 | QYAMTRAQRVRAAMFPETLDEGMQ [CTNNB1] | 3.76 ± 0.29 | 3.68 ± 0.39 |  | 
6 | SSLPGHAAKTLPGGAGKGRTPSAF [EHMT1] | 3.98 ± 0.34 | 4.26 ± 0.32 |  | 
7 | TGERPYECNECGKAFSRSSGLFNH [ZSCAN9] | 2.48 ± 0.4 | 2.6 ± 0.37 |  | 
8 | KSYPSSELRNMCDEHIASEEPAEK [CLCN6] | 5.53 ± 0.2 | 5.44 ± 0.27 |  | 
9 | GGGGGGGGGGGGGGTSSNNSEEEE [ANKRD17] | 5.42 ± 0.23 | 5.41 ± 0.31 |  | 
10 | LPPEKGREVAKELGLPYYETSVFD [RHOBTB1] | 3.65 ± 0.18 | 3.8 ± 0.24 |  | 
11 | MWWRGCKIKAIMALVAAILLLVII [VAMP4] | 2.89 ± 0.096 | 2.855 ± 0.027 |  | 
12 | NPYHQPYISRKYFATRPGAIETAM [TPRG1] | 2.22 ± 0.18 | 2.52 ± 0.25 |  | 
13 | QFVEGVRMEEIVEGCTGALHILAR [CTNNB1] | 3.12 ± 0.52 | 3.05 ± 0.64 |  | 
14 | EKDWGLEGYVWRGSQLEDQALRGL [ZSWIM9] | 2.97 ± 0.48 | 3.62 ± 0.58 |  | 
15 | VRELVDKATNVVMNYSEIESKVRE [CLINT1] | 4 ± 0.38 | 3.8 ± 0.37 |  | 
16 | HAGTVYGGVMYISGGITHDTFQKE [KLHL13] | 2.32 ± 0.24 | 2.31 ± 0.22 |  | 
17 | PQPDPVFLEALSSRYLGDSGLDDF [SERTAD3] | 4.19 ± 0.47 | 4.08 ± 0.14 |  | 
18 | KIRPDSSRPELLQPLNFVRFYLPL [GLT8D2] | 2.19 ± 0.42 | 2.17 ± 0.18 |  | 
19 | SNLTSNLASLVSQGMIQLALSGAS [RETREG3] | 3.05 ± 0.12 | 3.15 ± 0.24 |  | 
20 | TPDQKYSMDNTPHTPTPFKNALEK [MYBL2] | 5 ± 0.2 | 5.22 ± 0.2 |  | 
21 | EDGEDFNLGDALDSSNSMQTIQKT [KRT18] | 5.44 ± 0.29 | 5.41 ± 0.32 |  | 
22 | QQTGDDDEVDDFEDFIFSHFFGDK [PBXIP1] | 4.71 ± 0.51 | 4.9 ± 0.23 |  | 
23 | AVIQHRPSRQYATLDVYNPFETRE [SCAMP3] | 3.42 ± 0.23 | 3.39 ± 0.27 |  | 

Row | Sequence | protein stability index [1] | protein stability index [2] | protein stability index [3] | protein stability index [4]
24 | IKSHSSLPPNNSYADFERFSKVLE [DAPK3] | 2.81 ± 0.22 | 2.96 ± 0.39 |  | 
25 | LQEQHLSSPQGVQLDIASQSLDQE [BCL2L13] | 5.38 ± 0.28 | 5.56 ± 0.21 |  | 
26 | DQDYLHSLGKARTAQVQKDARIGE [FLOT1] | 4.86 ± 0.16 | 4.74 ± 0.19 |  | 
27 | YHQGCLVNPTGNLPMWSNQTWNNS [NANOGP8] | 2.5 ± 0.36 | 2.57 ± 0.066 |  | 
28 | GIFEESFIEERRQGLEQFINKIAG [SNX12] | 2.98 ± 0.59 | 2.84 ± 0.32 |  | 
29 | SKSADNQEYFERHRWPPVWYLKEE [RHOBTB1] | 3.4 ± 0.29 | 3.43 ± 0.34 |  | 
30 | EQKTGTEAEAADSGAVGARRFLLC [MFSD9] | 4.48 ± 0.15 | 4.42 ± 0.1 |  | 
31 | IPMHIDHDRNMDWVSTQLQATCNV [FADS1] | 3 ± 0.28 | 3.24 ± 0.27 |  | 
32 | ATLFFHYIKTPLFNPEVAKYLKVP [IQUB] | 2.93 ± 0.21 | 2.57 ± 0.66 |  | 
33 | KTTLGWKYEQAFESSQKYKEGKYI [YPEL3] | 2.37 ± 0.3 | 2.63 ± 0.17 |  | 
34 | MSFVAGVIRRLDETVVNRIAAGEV [MLH1] | 2.85 ± 0.35 |  |  | 
35 | MHLNFMDEKDRIITAFYNEARARA [DNAJC4] | 2.92 ± 0.35 | 2.98 ± 0.19 |  | 
36 | PVLKRSSESMENINSGYETRRKKG [KMT2E] | 4.87 ± 0.28 | 4.72 ± 0.29 |  | 
37 | KDKEYAEIIRKQVSATKAEAEKDG [UBE2R2] | 5.39 ± 0.29 | 5.38 ± 0.21 |  | 
38 | PARDGVEASAEGPRAVFVLLEERR [TFE3] | 4.26 ± 0.27 | 4.23 ± 0.073 |  | 
39 | SLVADNCVTLVWRMPDEDSKIDHY [FSD1] | 2.62 ± 0.15 | 2.94 ± 0.34 |  | 
40 | SRLLLLEQELKTVTYSLLKRLKER [SMAD6] | 2.77 ± 0.34 | 2.55 ± 0.49 |  | 
41 | MGSQGSPVKSYDYLLKFLLVGDSD [RAB40C] | 2.29 ± 0.28 | 2.37 ± 0.099 |  | 
42 | MSGGGVIRGPAGNNDCRIYVGNLP [SRSF1] | 2.85 ± 0.29 | 2.96 ± 0.51 |  | 
43 | GTGAVVTSLFMTPLDVVKVRLQSQ [SLC25A39] | 2.18 ± 0.11 | 2.06 ± 0.52 |  | 
44 | PVTSIGIDNLGLKLEENLQETHSA [SLC35F2] | 5.06 ± 0.19 | 5 ± 0.11 |  | 
45 | SDVVGRRSSLLACILLSALGYLLL [MFSD9] | 3.22 ± 0.32 | 3.19 ± 0.26 |  | 
46 | DTANEIGQVLHFENVKDVPFGFQT [SERPINB5] | 3.74 ± 0.075 | 3.99 ± 0.2 |  | 

Row | Sequence | protein stability index [1] | protein stability index [2] | protein stability index [3] | protein stability index [4]
47 | LGKITFIRNSRPLVKKVEEDEAGG [UFD1] | 3.99 ± 0.34 | 3.94 ± 0.25 |  | 
48 | FNGNYKVDSPKNFNIAGTVVKYRR [ADAMTSL2] | 3.14 ± 0.23 | 3.44 ± 0.36 |  | 
49 | NFEKLRLSLQDQVDTLTFQSQSLR [MTUS2] | 3.01 ± 0.22 | 3.14 ± 0.37 |  | 
50 | QLLSAMGSLCSLWFGASVLSLLEL [SCNN1D] | 3.2 ± 0.61 | 3.19 ± 0.49 |  | 
51 | DFLEEVEEIVFNLTNNVDLDNTKK [MNAT1] | 3.03 ± 0.38 | 3.18 ± 0.26 |  | 
52 | QVAKTKQQIEEQRVQVQVVERAQQ [FLOT1] | 5.18 ± 0.16 | 5.32 ± 0.15 |  | 
53 | PCATVSVFPGARLLTIGDANGEIQ [CARM1] | 3.31 ± 0.38 | 3.28 ± 0.16 |  | 
54 | QKVLGKALSLIRFPLMTIEEFAAG [BTBD1] | 3.06 ± 0.57 | 2.52 ± 0.38 |  | 
55 | AHHPLHPHLMQEHMGTNVIVANTM [HNF4A] | 3.2 ± 0.23 | 3.21 ± 0.17 |  | 
56 | APPLQAETPGSAVDYPLHDLVLHT [TNXB] | 4.16 ± 0.23 | 4.17 ± 0.2 |  | 
57 | VQTPPGGSEVVPVISPMYQLHKPL [IKZF1] | 3.77 ± 0.4 | 3.53 ± 0.23 |  | 
58 | NLGGGDPKGWRQLAQEAEAWLNYP [OAS1] | 3.22 ± 0.26 | 3.37 ± 0.26 |  | 
59 | QDGLPPTWRDFRTLEAFHDTCRQ [MED27] |  |  | 4.16 ± 0.27 | 4.21 ± 0.4
60 | ERYRHEIAHDGQRIYVLGGGTSWT [KLHDC10] | 2.83 ± 0.48 | 2.79 ± 0.23 |  | 
61 | AIEKAFQLWSNVTPLTFTKVSEGQ [MMP1] | 2.45 ± 0.49 | 2.3 ± 0.33 |  | 
62 | VLEWGAEGVAGKSGLEKEVQRLTS [FCHSD1] | 4.1 ± 0.16 | 4.09 ± 0.22 |  | 
63 | NDSGICMSPESYLGSPQHSPSTRG [ATF4] | 4.53 ± 0.29 | 4.86 ± 0.15 |  | 
64 | ADDPTSGFSSIPDAFWWAVVTMTT [KCNA3] | 2.94 ± 0.92 | 2.6 ± 0.4 |  | 
65 | GAAAPATPTPVAAALDACSGNDPF [SNAP91] | 5.18 ± 0.34 | 5.15 ± 0.24 |  | 
66 | FDGPEAWGVCEPQREEVEERMWAA [ZER1] | 3.43 ± 0.71 | 4 ± 0.53 |  | 
67 | QSNLEPLSPMTASSFLSFAELFSY [FEM1A] | 2.26 ± 0.26 | 2.42 ± 0.3 |  | 
68 | QNFLDPGYPLPKLDMNFSLENREE [ZNF449] | 5.02 ± 0.24 | 4.74 ± 0.29 |  | 
69 | FKKGKNPTGLLALQQIADFMTTNV [ADD1] | 2 ± 0.23 | 2.61 ± 0.34 |  | 

Row | Sequence | protein stability index [1] | protein stability index [2] | protein stability index [3] | protein stability index [4]
70 | VDEKGEKVRPSHKRCIVILREIPE [LARP4] | 2.9 ± 0.11 | 3.07 ± 0.037 |  | 
71 | QALEKIFLQKVAQMPQEEVELLPP [BRD3] | 2.63 ± 0.26 | 2.83 ± 0.4 |  | 
72 | SKSTQFEYAWCLVRSKYNDDIRKG [FIS1] | 2.26 ± 0.34 | 2.55 ± 0.56 |  | 
73 | ADDESLLRTSNGQPVKTAGEITQH [DNAAF3] | 5.26 ± 0.35 | 5.26 ± 0.2 |  | 
74 | EKEESRREAEKQNYLAEHCPPLHI [TNNI2] | 4.93 ± 0.17 | 4.94 ± 0.22 |  | 
75 | GYGGGFSSSSSFGSGFGGGYGGGL [KRT16] | 2.47 ± 0.33 | 2.57 ± 0.14 |  | 
76 | QALAGASSGRELGRPKELQPKKLH [ZNF263] | 5.01 ± 0.46 | 4.82 ± 0.14 |  | 
77 | KQNGRVAKVKGHRSQKHKERIRLL [C18orf25] | 3.9 ± 0.28 | 3.97 ± 0.29 |  | 
78 | YTEQELKPLTLEALGHLGNDDSAD [DLC1] | 5.43 ± 0.12 | 5.43 ± 0.16 |  | 
79 | LEKEEEKDLVMYSKCQRLFRSPSM [CDC25B] | 3.69 ± 0.39 | 3.57 ± 0.18 |  | 
80 | SALATQYMHCVNHAKQSMLEKGG [CHCHD3] |  |  | 2.81 ± 0.55 | 3.02 ± 0.34
81 | MAGAIAQGLIRAGKVEAQHILASA [PYCR3] | 2.18 ± 0.18 | 2.31 ± 0.32 |  | 
82 | LQTLLYFLSDVTAAVKENQMTPTN [DLC1] | 2.04 ± 0.52 | 2.12 ± 0.83 |  | 
83 | LSTPKPLVDFCNKPILLHQVEALA [GMPPB] | 2.54 ± 0.3 | 2.52 ± 0.41 |  | 
84 | LAFPLKHPDSWRAYPFYWAWLPQA [PI4K2A] | 2.42 ± 0.65 | 2.48 ± 0.84 |  | 
85 | MASRAGPRAAGTDGSDFQHRERVA [JAGN1] | 4.67 ± 0.31 | 4.7 ± 0.13 |  | 
86 | SEVKEELAGQKDELQLSDLLKQGY [PKD2L1] | 4.81 ± 0.28 | 4.92 ± 0.24 |  | 
87 | LLSSVHVLDLEARGYIKPHVDSIK [ALKBH7] | 2.97 ± 0.22 | 3.19 ± 0.33 |  | 
88 | MPCLLMELRRDSSESQLASTESDK [C18orf25] | 4.73 ± 0.05 | 4.55 ± 0.22 |  | 
89 | DHKRETERVVREALEKLRSEMEEE [ZMYND11] | 4.99 ± 0.18 | 5.35 ± 0.12 |  | 
